Experimental data reported in the supplement of paper PMC9112550, “Optimization of the antimicrobial peptide Bac7 by deep mutational scanning” (BMC Biology, 2022).

Test system: Escherichia coli TOP10
Assay: shrunken log2 fold change of peptide-encoding DNA abundance (4.5 h post-induction vs induction); higher = less antimicrobial activity (less host growth inhibition)
Conditions: time post-induction: 4.5 h; library: site-saturation at positions 5, 18, 19, 20
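Further: peptides expressed intracellularly from a pBAD plasmid library in pooled LB shake-flask culture, induced with 0.3% L-arabinose, DNA abundance read by NGS, three biological replicates, DESeq2 with apeglm shrinkage.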

Sequence | shrunken log2 fold change
RRIRFRPPRLPRPRPRPGGIPRP | -0.0183
RRIRCRPPRLPRPRPRPEKVPRP | 0.0187
RRIRVRPPRLPRPRPRPHQRPRP | -0.124
RRIRSRPPRLPRPRPRPNQTPRP | 0.0606
RRIRYRPPRLPRPRPRPTVSPRP | -0.288
RRIRMRPPRLPRPRPRPAKQPRP | 1.12
RRIRLRPPRLPRPRPRPHYGPRP | -0.232
RRIRERPPRLPRPRPRPWWVPRP | -0.056
RRIRFRPPRLPRPRPRPCNYPRP | -0.72
RRIRLRPPRLPRPRPRPLGGPRP | 0.157
RRIRPRPPRLPRPRPRPPHCPRP | 0.388
RRIRWRPPRLPRPRPRPLTLPRP | -0.00729
RRIRSRPPRLPRPRPRPRWEPRP | 0.275
RRIRWRPPRLPRPRPRPDMEPRP | -0.0114
RRIRSRPPRLPRPRPRPILAPRP | -0.162
RRIRARPPRLPRPRPRPSWTPRP | -0.392
RRIRDRPPRLPRPRPRPQGWPRP | 0.693
RRIRDRPPRLPRPRPRPYVIPRP | -0.116
RRIRGRPPRLPRPRPRPSVQPRP | -0.0165
RRIRGRPPRLPRPRPRPRLAPRP | 1.35

Sequence | shrunken log2 fold change
RRIRTRPPRLPRPRPRPNMAPRP | -0.155
RRIRTRPPRLPRPRPRPLSMPRP | -0.238
RRIRRRPPRLPRPRPRPCTDPRP | -0.115
RRIRNRPPRLPRPRPRPTHRPRP | 0.597
RRIRCRPPRLPRPRPRPFHHPRP | -0.00672
RRIRARPPRLPRPRPRPRTQPRP | 0.634
RRIRLRPPRLPRPRPRPMDSPRP | -0.172
RRIRCRPPRLPRPRPRPQHSPRP | -0.764
RRIRSRPPRLPRPRPRPAKLPRP | 0.195
RRIRFRPPRLPRPRPRPVWRPRP | 0.441
RRIRLRPPRLPRPRPRPICWPRP | -0.0336
RRIRLRPPRLPRPRPRPIVKPRP | -0.0195
RRIRWRPPRLPRPRPRPHVHPRP | -0.126
RRIRCRPPRLPRPRPRPMDFPRP | -0.151
RRIRLRPPRLPRPRPRPAKKPRP | 0.0858
RRIRIRPPRLPRPRPRPLIQPRP | -1.02
RRIRDRPPRLPRPRPRPWGTPRP | 0.0812
RRIRPRPPRLPRPRPRPCRSPRP | -0.136
RRIRVRPPRLPRPRPRPCMWPRP | 0.0384
RRIRTRPPRLPRPRPRPQNGPRP | -0.456

Sequence | shrunken log2 fold change
RRIRSRPPRLPRPRPRPSMGPRP | -0.0521
RRIRQRPPRLPRPRPRPQSSPRP | 0.0994
RRIRNRPPRLPRPRPRPYSMPRP | -0.292
RRIRSRPPRLPRPRPRPRYIPRP | -0.707
RRIRKRPPRLPRPRPRPCWRPRP | 0.183
RRIRDRPPRLPRPRPRPHSDPRP | -0.115
RRIRVRPPRLPRPRPRPCDKPRP | -0.323
RRIRARPPRLPRPRPRPSRNPRP | -0.0178
RRIRMRPPRLPRPRPRPSAKPRP | 0.0449
RRIRDRPPRLPRPRPRPNYWPRP | -0.218
RRIRIRPPRLPRPRPRPYAQPRP | -0.121
RRIRIRPPRLPRPRPRPVPGPRP | -0.0459
RRIRQRPPRLPRPRPRPFVDPRP | -0.00879
RRIRVRPPRLPRPRPRPIDHPRP | -0.152
RRIRNRPPRLPRPRPRPCVKPRP | -0.13
RRIRRRPPRLPRPRPRPCTCPRP | -0.111
RRIRMRPPRLPRPRPRPMCLPRP | 0.292
RRIRVRPPRLPRPRPRPIIKPRP | -0.351
RRIRLRPPRLPRPRPRPHLQPRP | -0.0975
RRIRVRPPRLPRPRPRPTLKPRP | 0.151
